According to the nanobody polyreactivity screen of Harvey et al. (2022):

Assay: yeast display, Sf9 membrane polyspecificity reagent, FACS + sequencing; frameworks hold sequencing errors
Summary of the method: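 Polyreactivity labels are assigned by the sorting gate from which each nanobody was recovered. The gates were low and high (top ~1%), set on anti-HA fluorescence for expression and streptavidin fluorescence for reagent binding. Before sorting, galactose-induced (36–48 hours) yeast display cells were stained for 1 hour at 4 °C with 10% biotinylated, detergent-solubilized Sf9 membrane reagent.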

Q: With “QVQLVESGGGLVQAGGSLRLICAASGSTFGVNAMGWYRQAPGKERELVAVITRSGGSTYYADSVKGRFTISRDNAKNTVYLEMNSLKPEDTAVYYCAKSGVVDWGQGTQVTVSS” as the sequence, how does the “polyreactivity (PSR sort gate)” value read?
A: low polyreactivity

Q: Which “polyreactivity (PSR sort gate)” value does the source give for “QVQLVDSGGGLVQAGGSLRLSCAASGSIFFENDMGCYRQAPGKEREFVAAISLSSTSTYYADSVKGRFTISRDNAKNTVYLQMNSLKPEDTAVYYCAADAIFGWPTFDFWGQGTQVTVSS” here?
A: low polyreactivity

Q: For “QVQLVESGGGLVQAGGSLRLSCAASGSTSYRYAMGWYRQAPGKERELVAAISSSGGSTYYADSVKGRFTISRDNAKNTVYLQMNSLKPEDTAVYYCAARFYSGPGGYTMYYWGQGTQVTVSS”, which “polyreactivity (PSR sort gate)” value is on record?
A: high polyreactivity

Q: Which “polyreactivity (PSR sort gate)” value does the source give for “QVQLVESGGGLVQAGGSLRLSCAASGNIFNYNAMGWYRQATGNERELVAAISFSGGSTYYADSVKARFTISRDNAQNTVYLQMNSLKPEDTAVYYCAKAERNYFEYWGQGTQVTVSS” here?
A: high polyreactivity

Q: Which “polyreactivity (PSR sort gate)” value does the source give for “QVQLVESGGGLVQAGGSLRLSCAASGFIFTPYTMGWYSQAPGKERELVAAITDGSSTYYADSVKGRFTISRDNAKNTVYLQMNSLKPEDTALYYCNADGKPPYNSWLYDYWGQGTQVTVTS” here?
A: low polyreactivity

Q: Which “polyreactivity (PSR sort gate)” value does the source give for “QVQLVESGGGLVQAGGSLRLSCAASGSIFPYYAMGWYRQAPGKERELVATISSGGSTFYADSVKGRFTISRDNAKKTVYLQMNSLKPEDTAVYYCAADIWYFDYDYWGQGTQVTVSS” here?
A: high polyreactivity

Q: With “QVQLVDSGGGLVQAGGSLRLSCAASGRTFHKYAMGWYRQAPGKERELVAAISNGGRTYYADSVKGRFTISRDNAKNTLYLQMNSLKPEDTAVYYCNADRTWKGRQYDYWGQGTQVTVSS” as the sequence, how does the “polyreactivity (PSR sort gate)” value read?
A: high polyreactivity

Q: For “QVQLVESGGGLVQAGGSLRLSCAASGFIFPEYAMGWYRQAPGKERELVAAINWSGGNTYYADSVKGSFTISRDNAKNTVYLQMNSLKPEDTAVYYCNVDDWVTDDDYWGQGTQVTVSS”, which “polyreactivity (PSR sort gate)” value is on record?
A: low polyreactivity

Q: With “QVQLVESGGGLVQAGGSLRLSCAASGFIFARYAMGWYIQAPGKERELVAAITRRGGSTYYADSVKGRFTISRDNAKNTVYLQMNSLKPEDTAVYYCAAVTSTSWGSVSYRYGVGYDYWGQGTQVTVSS” as the sequence, how does the “polyreactivity (PSR sort gate)” value read?
A: high polyreactivity

Q: Which “polyreactivity (PSR sort gate)” value does the source give for “QVQLVESGGGLVQAGGSLRLSCAASGSIFDFNAMGWYRQVPGKERELVAAITSGGSTNYADSVKGRFTISRDNAKNTVYLQMNSLKPEDTAVYYCAARPARGASQGGYVRPWWYDYWGQGTQVTVSS” here?
A: low polyreactivity

Q: For “QVQLVESWGVLVQAGGSLRLSCAASGYTFLVYAMGWYRQAPGKERELVAGITRGSSTYADSVKGRFTISRDNAKNTVYLQMNSLKPEDTAVYYCAARFAKQDYDYWGQGTQVTVSS”, which “polyreactivity (PSR sort gate)” value is on record?
A: high polyreactivity

Q: For “QVQLVESGGGLVQAGGSLRLSCAASGSTFADYVMGWYRQAPGKERELVAAISRSGGSTYYADSEKGRFTISRDTAKNTVYLQTNSLKPEDTAVYYCAAVKARRYDYWGQGTQVTVSS”, which “polyreactivity (PSR sort gate)” value is on record?
A: high polyreactivity

Q: For “QVQLVESGGGLVQAGGSLRLSCAASGSIFKSYAMGWYRQAPGKERELVAVISDSGSTYYADSVKGRFTISRDNAKNTVYLQMNSLKPEDTAVYYCRGRGRRNEYWGQGTQVTVSS”, which “polyreactivity (PSR sort gate)” value is on record?
A: high polyreactivity

Q: Which “polyreactivity (PSR sort gate)” value does the source give for “QVQLVESGGGLVQAGGSLRVSCAPSGRTFSWYAMGWYRQAPGKEREFVAAIRWSGSSTYYADSVKGRFTISRDNAKNTVYLHMNSLKPEDTAVYYCAVAAGIPQRRYYYWGHGTQVTVSS” here?
A: high polyreactivity

Q: Which “polyreactivity (PSR sort gate)” value does the source give for “QVQLVESGGGLVQAGGILRLSCAASGFIFVRYAMGWYRQAPGKERELVAAISWRGGSTYYADSVKGRFTISRDNAKNTVYLQMNSLKPEDTAVFYCSAVTWVHRYSRFHPFVAFDYWGQGTQVTVSS” here?
A: high polyreactivity

Q: With “KVQLVESGGGLVQAGGSLRLSCAASGYIVSYYDMGWYRQAPGKERELVAAITAGVAGTYYADSVKGRLTISRDNAKNSVYLQMNSLTPEDTAVFYCAADRYITTVVRMYYSGQGTQVTVSS” as the sequence, how does the “polyreactivity (PSR sort gate)” value read?
A: low polyreactivity

Q: With “QVQHVESGGGLVQAGGSLRLSCAASGSTFTAYAMGWYRQAPGKVSELVAVITSGGGTYYADSVKVRFTISRDNANNTDYLQMNSLKPEDTAVYYCHSARTYAGTYIYRYGYWGQGTQVTVSS” as the sequence, how does the “polyreactivity (PSR sort gate)” value read?
A: high polyreactivity

Q: For “QVQLVESGGGLVQAGGSLRLSCAASGRTFNWYAMGWYRQAPGKERELVAAITQSGGITSYADSVKGRFTISRDNAKNTVYLQMNSLKPEDTAVYYCATTSRYSRSHYDWYDYWGQGTQVTVSS”, which “polyreactivity (PSR sort gate)” value is on record?
A: low polyreactivity

Q: With “QVQLVESGGGLVQAGGSLRLSCAASGSTFATYTMGWYRQAPGKERELVATISRSGTTTYYADSVKGRFTISRDNAKYTVYLQMNSLKPEDTAVYYCNTLRAYWTYHFYGAVRDGYDYWGQGTQVTVST” as the sequence, how does the “polyreactivity (PSR sort gate)” value read?
A: low polyreactivity

Q: With “QVQLVESGGGLVQAGGSLRLSCAASGSTFYYYAMGWYRQAPGKEREFVASISSRGTSTYYADSVKGRFTISRDHAKNTVYLQMNSMKPEDTAVYYCAARGWGPTRAYDYWGQGTQVTVSS” as the sequence, how does the “polyreactivity (PSR sort gate)” value read?
A: high polyreactivity

Q: For “QVQLVESGGGLVQAGGSLRLSCAASGRTFYGYAMGWYRQAPGKEREFVAAINRSGGTTYYADSVKGRFTISRDNAKNTVYLQMNSLKPEDTAVYYCAADYSRIRRWPGYYAYDYWGQGTQVTVSS”, which “polyreactivity (PSR sort gate)” value is on record?
A: high polyreactivity

Q: For “QVQLVESGGGLVQAGGSLRLSCAASGSTFDLYAMGWYRQAPGKEREFVASISWRGTNTYYADSVKGRFTISRDNAKNTVYLQMISLKPEDTAVYYCYAVRGWTTRYDYWGQGTQVTVSS”, which “polyreactivity (PSR sort gate)” value is on record?
A: high polyreactivity

Q: With “QVQLVESGGGLVQAGGSLRLSCASSGLTFYGNAMVWYRPAPGKERELVAAISSSGGTTYYADSVKGRFTISRDNAKNTVYLQMTSLKPEDTAVYYCAARPSGGYESTRTRDYWGQGTQVTVSS” as the sequence, how does the “polyreactivity (PSR sort gate)” value read?
A: low polyreactivity

Q: Which “polyreactivity (PSR sort gate)” value does the source give for “QFQLVESGGGLVQAGGSLRLSCAASGGILYRYAMGWYRPAPGKERELVAAIRWSGGSTYYADSVKGRFTISRDNAKNTVYLQMNSLKPEDTAVYYCAADVYYYHVLDFDYWGQGTQVTVSS” here?
A: low polyreactivity

Q: With “QVQLVESGGGLVQAGGSLRLSCAASGSISWYYAMGWYRQAPGKEWEGVAAISDSGGDTYYADSVKGRFTISRDNAKNTVYLQMNSLKPEDTAVYYCAAQYRGSYRTTYDYWGQGTQVTVSS” as the sequence, how does the “polyreactivity (PSR sort gate)” value read?
A: low polyreactivity

Q: Which “polyreactivity (PSR sort gate)” value does the source give for “QVQLVESGGGLVQAGGSLRLSCAASGRIINYNVMGWYRQAPRKEMELVAAITRGGSTYYADSVKVRFTISRDNAKNTVYLQMNILKPEDTEVYYCSADTARRPRSYYYWGQGTQVTVSS” here?
A: low polyreactivity

Q: Which “polyreactivity (PSR sort gate)” value does the source give for “QVQLVESGGGLVQAGGSLRLSCAASGRIFASYAMGWYRQAPGKERELVAAIDRTDSTYYADSVKGRFTISRDNAKNTVYLQMNSLKPEDTAVYYCAADEYYTFSSFELRRMDYWGQGTQVTVSS” here?
A: low polyreactivity

Q: For “QVQLVESGGGLVQAGGSHRLSCAASGFTFGRYPMGWYRQAPGKERELVAAISSSGSSTYYSDSVKGRFTISRDNAKNTVYLQMNSLKQEDTAVYYCAAAIYVSDRHTYNYWGQGSQVTVSS”, which “polyreactivity (PSR sort gate)” value is on record?
A: high polyreactivity

Q: Which “polyreactivity (PSR sort gate)” value does the source give for “QVQLVESGGGLVQAGGSLRLSCAASGSIFPKNAMGWYRQATGKERELVARISGSGGSTYYADSVKGRFTISRDNAKNTVYLQMNSLKPEDTAVYYCAKDQSKIYSSWSGYYYWGQGTQVTVSS” here?
A: low polyreactivity

Q: With “QVQLVESGGGLVQAGGSLRLSCAASGFTFHQYTMGWYRQAPGKERELVAAISRSGYTNYADSVKGRFTISRDNAKNTVYLQMNSLKPEDTAVYYCNARSTRSRTYQSYDYWGQGTQVTVSS” as the sequence, how does the “polyreactivity (PSR sort gate)” value read?
A: high polyreactivity

Q: For “QVQLVESGGGLVQSGGSLRLSCAASGRTFFENAMGWYRPAPGKEREFVAAISYNGGSTYYADSVKGRFTISRDNAKNTVYLQMNSLKPEDTAVYYCAADPNYGYDYWGQGTQVTVSS”, which “polyreactivity (PSR sort gate)” value is on record?
A: low polyreactivity

Q: Which “polyreactivity (PSR sort gate)” value does the source give for “QVQLVESGGGIVQARGSLRLSSAASGNIFRINGMGWSRQERGKERELVASITRSGSTYYADSVKGRFTISRDNAKNTVYLQMNILKPEDTAVYYCAADSSSYGVRFDYWGQGTQVTVSS” here?
A: low polyreactivity

Q: For “QVQLVESGGGLVQAGGSLRLSCAASGSILQPNAMGWYRQAPGKERELVAAISWSGDNTYYADSVKGRFTISRDNAKNTVYLQMNSLKPEDTAVYYCATDADIYFQEYDYWGQGTQVTVSS”, which “polyreactivity (PSR sort gate)” value is on record?
A: low polyreactivity

Q: Which “polyreactivity (PSR sort gate)” value does the source give for “QVQLVESGGGLDQAGGSLRLIFAASGRTFYRYAMGLYRQAPGKERELVAAISVRGGSTYYADSVKGRFTISRDNAKNTVYLQMNSLKPEDTAVYYCDAEYVAPWYIGLEVTRLIYWGQGTQVTVSS” here?
A: high polyreactivity

Q: With “QVQLVESGGGLVQAGGSLRKSCAASRGILETNAIGWYRQAPGKERELVAAIDFSAGSTYYADSVKGRFTISRDNAKNTVYLQMNSLKPEDTAVYYCATRLGVLYDYWGHGTQVTVSS” as the sequence, how does the “polyreactivity (PSR sort gate)” value read?
A: low polyreactivity

Q: With “QVQLVESGGGLVQAGGSLRLSCAASGRTFVFNAMGWYRQAPGKERELVAAITKNGGSTYYADSVKGRFTISRDNAKNPVYLQMNSLKPEDTAVYYCAGRRGYPFYYWGQGTQVTVSS” as the sequence, how does the “polyreactivity (PSR sort gate)” value read?
A: low polyreactivity

Q: For “QVQLVESGGGLVQAGGSLRLSCAAYGRIFFRYAMGWYRQAPGKERELVATISSSGSTYYADSVKGRFTISRDNAKNTVYLQMNSLIPEDTAVYYCAATWTTRGLRHFVYNDYDYWGQGTQVTVSS”, which “polyreactivity (PSR sort gate)” value is on record?
A: high polyreactivity

Q: For “QVQLVESGGGLVQAGGSLRLSCAASGGIYRYYAMGWYRQAPGKERELVAAISTSGTDTYYADSVKGRFTISRDNAKNTVYVQMNSLIPEDTAVYYCAAELYRYGFYEPIYPYSYDYWGQGTQVTVSS”, which “polyreactivity (PSR sort gate)” value is on record?
A: low polyreactivity

Q: For “QVQLVESGGGLVQAGGSLRLSCAASGSILARYAMGWYRPAPGKERELVAAISSRGGSTYYADSVKGRFTISRDNAKNTVYLEINSLKPEDTAVYSCAAYVYLQVEYDYWGHGTQVTVSS”, which “polyreactivity (PSR sort gate)” value is on record?
A: low polyreactivity

Q: For “QVQLVESGGGLVQAGRSLRLSCAASGRIFRVNAMGWYRQAPRKERQLVAAISVRGGSTYYADSVKGRFTISRDNAKNTVYLQMNSLKPEDTAVYYCAAPLVYFTPRYDYWGQGTQVTVSS”, which “polyreactivity (PSR sort gate)” value is on record?
A: high polyreactivity

Q: Which “polyreactivity (PSR sort gate)” value does the source give for “QVQLVESGGGLVQAGGSLRLSCAASGFTFYTYAMGWYRQAPGKERELVAAINQRGGRTYYADSVKGRFTISRDNAKNTVYLQMNSLKPEDTAVYYCAKSPPPKTRYDYWGQGTQVTVSS” here?
A: high polyreactivity

Q: For “QVQLVESGGGLVQAGGSLRLSCAASGNTFEYYVMGWYRQAPGKERELVAAITWSTGSTYYADSVKGRFTISRDNAKNTVYLQKNSLKPEDTAVYYCAALYYFIFGRPTRFDYWGQGTQVTVSS”, which “polyreactivity (PSR sort gate)” value is on record?
A: low polyreactivity

Q: With “QVQLVESGGGLVQAGGSLRLSCAASGSIFVWYAMGWYRQAPGRKELVAAISWSGGTTYYADSVKGRFTISRDNAKNTVYLQMNSLKPEDTAVYYCAARGAVQASFYYWGQGTQVTVSS” as the sequence, how does the “polyreactivity (PSR sort gate)” value read?
A: high polyreactivity
